Values of other authors as cited in paper PMC4860049.

Biological target: CHMP5 (Homo sapiens) (UniProt Q9NZZ3)
Chain of UniProt Q9NZZ3 (Q9NZZ3 whole entry): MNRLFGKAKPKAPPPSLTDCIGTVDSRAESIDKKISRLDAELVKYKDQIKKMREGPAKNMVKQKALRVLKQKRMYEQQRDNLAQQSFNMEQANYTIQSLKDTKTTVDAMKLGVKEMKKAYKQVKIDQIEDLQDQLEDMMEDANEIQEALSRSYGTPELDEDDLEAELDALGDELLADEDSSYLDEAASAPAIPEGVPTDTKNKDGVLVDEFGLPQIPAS

With LIP5 MIT2 (from UniProt Q9NP79) as the substance, how does the Kd read?
The Kd was 3 nM.
